B1: Vacuolar protein sorting-associated protein 51 homolog (Homo sapiens), Q9UID3-1 (parent)
chain: MAAAAAAGPSPGSGPGDSPEGPEGEAPERRRKAHGMLKLYYGLSEGEAAGRPAGPDPLDPTDLNGAHFDPEVYLDKLRRECPLAQLMDSETDMVRQIRALDSDMQTLVYENYNKFISATDTIRKMKNDFRKMEDEMDRLATNMAVITDFSARISATLQDRHERITKLAGVHALLRKLQFLFELPSRLTKCVELGAYGQAVRYQGRAQAVLQQYQHLPSFRAIQDDCQVITARLAQQLRQRFREGGSGAPEQAECVELLLALGEPAEELCEEFLAHARGRLEKELRNLEAELGPSPPAPDVLEFTDHGGSGFVGGLCQVAAAYQELFAAQGPAGAEKLAAFARQLGSRYFALVERRLAQEQGGGDNSLLVRALDRFHRRLRAPGALLAAAGLADAATEIVERVARERLGHHLQGLRAAFLGCLTDVRQALAAPRVAGKEGPGLAELLANVASSILSHIKASLAAVHLFTAKEVSFSNKPYFRGEFCSQGVREGLIVGFVHSMCQTAQSFCDSPGEKGGATPPALLLLLSRLCLDYETATISYILTLTDEQFLVQDQFPVTPVSTLCAEARETARRLLTHYVKVQGLVISQMLRKSVETRDWLSTLEPRNVRAVMKRVVEDTTAIDVQVGLLYEEGVRKAQSSDSSKRTFSVYSSSRQQGRYAPSYTPSAPMDTNLLSNIQKLFSERIDVFSPVEFNKVSVLTGIIKISLKTLLECVRLRTFGRFGLQQVQVDCHFLQLYLWRFVADEELVHLLLDEVVASAALRCPDPVPMEPSVVEVICERG
partner: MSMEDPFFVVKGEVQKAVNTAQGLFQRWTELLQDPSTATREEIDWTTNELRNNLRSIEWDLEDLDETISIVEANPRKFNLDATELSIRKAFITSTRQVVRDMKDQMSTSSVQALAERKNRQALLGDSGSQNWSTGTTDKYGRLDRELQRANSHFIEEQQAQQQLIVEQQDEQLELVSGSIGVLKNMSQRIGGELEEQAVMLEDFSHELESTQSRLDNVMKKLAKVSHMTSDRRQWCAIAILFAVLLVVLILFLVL
B2: Vacuolar protein sorting-associated protein 51 homolog (Homo sapiens), Q9UID3-1 (parent)
chain: B1 chain
partner: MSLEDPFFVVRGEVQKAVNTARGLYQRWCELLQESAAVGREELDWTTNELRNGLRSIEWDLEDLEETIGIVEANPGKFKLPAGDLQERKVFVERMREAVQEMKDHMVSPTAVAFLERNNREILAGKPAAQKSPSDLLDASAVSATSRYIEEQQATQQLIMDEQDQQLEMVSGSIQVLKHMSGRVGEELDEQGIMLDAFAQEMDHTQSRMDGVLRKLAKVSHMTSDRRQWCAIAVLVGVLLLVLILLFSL
B3: Syntaxin-6 (Homo sapiens), O43752 (parent)
chain: B1 partner
partner: B1 chain
B4: Syntaxin-10 (Homo sapiens), O60499-1 (parent)
chain: B2 partner
partner: B1 chain

Variants of: B1
Settings: with stx6_human STX6, O43752

effect of a mutation on the interaction	Variant
disrupting interaction strength	Y40A
disrupting interaction strength	L37A
disrupting interaction strength	Y41A

Variants of: B1
Settings: with stx6_human STX6, O43752
Remark: another data set of the same source

effect of a mutation on the interaction	Variant
disrupting interaction strength	Y40A;Y41A

Variants of: B2
Settings: with STX10, O60499-1

effect of a mutation on the interaction	Variant
disrupting interaction strength	Y40A
disrupting interaction strength	Y41A
disrupting interaction strength	L37A

Variants of: B2
Settings: with STX10, O60499-1
Remark: another data set of the same source

effect of a mutation on the interaction	Variant
disrupting interaction strength	Y40A;Y41A

Variants of: B3
Settings: with VPS51, Q9UID3-1

effect of a mutation on the interaction	Variant
disrupting interaction strength	F7L
disrupting interaction strength	R88M

Further lines, the variant ahead of its results:

Variant	effect of a mutation on the interaction
D5L	disrupting interaction strength
P6A	disrupting interaction strength

Variants of: B4
Settings: with VPS51, Q9UID3-1

effect of a mutation on the interaction	Variant
disrupting interaction strength	P6A
disrupting interaction strength	F7L

The next lines start with the variant.

Variant	effect of a mutation on the interaction
D5L	disrupting interaction strength
R88M	disrupting interaction strength
